Assay results reported in publication PMC5560056 (Molecular cell, 2016).
Residue numbers refer to the chain shown, from its start. Where two headings read alike, the source gives them in different places. Values belong to the binder of their own block, whether it stands above or below them.

What was measured:
[1] = biological target: T1, recombinant human Pds5B_(1–1120) (human, UniProt Q9NTI5 1-1120); test: pull-down
T1 sequence (looked up): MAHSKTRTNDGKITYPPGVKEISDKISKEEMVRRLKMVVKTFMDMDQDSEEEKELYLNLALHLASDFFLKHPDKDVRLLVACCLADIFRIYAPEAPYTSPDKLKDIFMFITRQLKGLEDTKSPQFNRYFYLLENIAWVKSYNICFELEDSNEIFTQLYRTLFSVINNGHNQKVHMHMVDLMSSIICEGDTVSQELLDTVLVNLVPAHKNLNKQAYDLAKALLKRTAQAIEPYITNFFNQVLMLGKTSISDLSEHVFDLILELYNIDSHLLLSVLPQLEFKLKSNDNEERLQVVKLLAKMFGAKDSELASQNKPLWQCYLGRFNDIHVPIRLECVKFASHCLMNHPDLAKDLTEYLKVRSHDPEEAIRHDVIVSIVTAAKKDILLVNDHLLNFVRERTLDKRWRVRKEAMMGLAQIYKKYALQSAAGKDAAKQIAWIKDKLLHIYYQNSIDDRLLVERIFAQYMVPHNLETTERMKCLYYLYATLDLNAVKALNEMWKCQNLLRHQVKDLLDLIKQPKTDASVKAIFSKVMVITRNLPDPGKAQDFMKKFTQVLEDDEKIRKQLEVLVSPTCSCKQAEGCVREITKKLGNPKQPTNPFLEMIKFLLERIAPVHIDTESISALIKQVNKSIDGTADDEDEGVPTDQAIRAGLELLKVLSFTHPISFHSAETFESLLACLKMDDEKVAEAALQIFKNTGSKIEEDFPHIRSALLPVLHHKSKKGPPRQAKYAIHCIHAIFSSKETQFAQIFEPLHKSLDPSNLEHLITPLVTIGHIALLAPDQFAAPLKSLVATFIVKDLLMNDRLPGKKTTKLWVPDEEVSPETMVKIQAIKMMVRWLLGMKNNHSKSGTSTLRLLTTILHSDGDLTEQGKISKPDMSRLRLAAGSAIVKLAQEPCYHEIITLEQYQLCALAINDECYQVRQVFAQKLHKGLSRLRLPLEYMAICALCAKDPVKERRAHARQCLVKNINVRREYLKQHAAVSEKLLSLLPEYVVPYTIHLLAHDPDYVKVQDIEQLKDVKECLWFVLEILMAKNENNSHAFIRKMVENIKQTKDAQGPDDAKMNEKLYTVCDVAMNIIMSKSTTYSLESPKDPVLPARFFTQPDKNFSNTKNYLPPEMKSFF

[2] = biological target: T1, recombinant human Pds5B_(1–1120); test: pull-down; remark: listed apart in the source
[3] = biological target: T2, recombinant human Pds5B_(21–1120) (human, UniProt Q9NTI5 21-1120); test: ITC
T2 sequence (looked up): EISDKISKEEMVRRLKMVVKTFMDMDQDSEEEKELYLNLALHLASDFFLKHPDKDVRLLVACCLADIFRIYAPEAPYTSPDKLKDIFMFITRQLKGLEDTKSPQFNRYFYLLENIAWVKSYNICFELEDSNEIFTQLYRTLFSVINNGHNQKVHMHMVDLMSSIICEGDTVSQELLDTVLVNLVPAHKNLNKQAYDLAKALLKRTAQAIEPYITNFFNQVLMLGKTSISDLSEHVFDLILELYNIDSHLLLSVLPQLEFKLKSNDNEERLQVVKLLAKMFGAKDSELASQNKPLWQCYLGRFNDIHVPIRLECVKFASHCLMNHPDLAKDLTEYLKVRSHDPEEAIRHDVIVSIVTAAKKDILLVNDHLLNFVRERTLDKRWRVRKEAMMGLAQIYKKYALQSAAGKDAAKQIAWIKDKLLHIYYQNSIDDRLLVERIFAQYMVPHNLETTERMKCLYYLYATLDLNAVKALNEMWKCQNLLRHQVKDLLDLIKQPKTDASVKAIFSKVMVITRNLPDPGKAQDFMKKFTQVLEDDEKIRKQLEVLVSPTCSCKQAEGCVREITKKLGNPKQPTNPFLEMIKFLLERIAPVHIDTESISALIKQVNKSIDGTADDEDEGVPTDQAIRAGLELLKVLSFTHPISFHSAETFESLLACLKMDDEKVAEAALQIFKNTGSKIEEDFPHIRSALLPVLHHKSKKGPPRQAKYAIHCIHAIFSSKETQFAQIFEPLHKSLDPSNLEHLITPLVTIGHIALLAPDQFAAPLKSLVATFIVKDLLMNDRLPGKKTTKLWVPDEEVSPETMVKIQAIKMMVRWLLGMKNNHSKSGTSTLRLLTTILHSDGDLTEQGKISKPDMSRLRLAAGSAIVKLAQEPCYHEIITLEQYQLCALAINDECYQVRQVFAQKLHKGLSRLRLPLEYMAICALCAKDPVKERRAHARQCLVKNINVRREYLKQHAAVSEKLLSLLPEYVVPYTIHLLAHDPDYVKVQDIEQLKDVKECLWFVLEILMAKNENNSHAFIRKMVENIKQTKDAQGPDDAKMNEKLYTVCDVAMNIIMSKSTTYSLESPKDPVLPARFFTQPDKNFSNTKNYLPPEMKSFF

[4] = biological target: T3, recombinant human Pds5B_(21–1120) Y445A/N447A (human, UniProt Q9NTI5 21-1120, Y445A | N447A); test: pull-down
T3 sequence (looked up): T2 sequence (looked up) with Y425A, N427A

[5] = biological target: T4, selenomethionine-containing Pds5B_(21–1120) (human, UniProt Q9NTI5 21-1120, selenomethionine-containing); test: crystal structure
T4 sequence (looked up): T2 sequence (looked up)

- Kd [3]: 4.3 nM
B1: recombinant purified Scc1_(76–150) (domain or fragment, human, UniProt O60216 76-150, looked up)
chain: ADCNEAFIKIKMAFRPGVVDLPEENREAAYNAITLPEEFHDFDQPLPDLDDIDVAQQFSLNQSRVEEITMREEVG

- binding result [4]: binds
B2: GST-Scc1_(76–150) (domain or fragment, human, UniProt O60216 76-150, looked up)
chain: B1 chain

- binding result [5]: binds
Binder: MTSRFGKTYSRKGGNGSSKFDEVFSNKRTTLST (peptide, UniProt Q7Z5K2 1-33, looked up) [synthetic Wapl_(1–33) peptide]

More lines, now with the values behind:

Binder: DARDLEMSKKVRRSYSRLETLGSASTSTPGRRSCFGFEGL (peptide, UniProt Q96FF9 132-171, looked up) [synthetic Sororin peptide (residues 132–171)]
- binding result [1]: binds

Binder: LDARDLEMSKKVRRSYSRLETLGSASTSTPGRRSCFGFEGL (domain or fragment, human, UniProt Q96FF9 131-171, looked up) [Sororin residues 131–171]
- binding result [2]: binds
